Source: US5786145A, “Oligonucleotide competitors for binding of HIV RRE to REV protein and assays for screening inhibitors of this binding” (Medical Research Council, priority 1995, dated 1998)
Entries after “also recorded” stand apart in the source; their conditions may differ. Like-named read-outs stand apart in the source and are kept apart here.

How the values were obtained:
[1] = tested on: rev protein; assay: Saturation filter binding of rev to labelled RNA transcripts; set-up: species or system HIV-1; conditions: for rev binding, result in words: saturation filter binding, 0 to 10 nM rev
Procedure: Rev protein was expressed and purified as described (33) or further purified by chromatography on Heparin-Sepharose. Rev was applied to Heparin columns in a buffer containing 200 mM NaCl/50mM Tris-HCl pH8.0/1 mM DTT/0.1 mM EDTA 0.1% Triton X-100 and eluted in buffer containing 2M NaCl. After gel filtration on Superose 6 (prep grade) columns equilibrated with 200 mM NaCl/50 mM Tris-HCl pH8.0/1 mM DTT/0.1 mM EDTA, the rev protein appeared homogeneous on SDS-polyacrylamide gels and free of RNA contaminants. Rev concentrations were determined by amino acid analysis of the purified protein.
DNA inserts containing RRE-related sequences were cloned between the EcoRI (5') and HindIII (3') sites of pGEM 1, either by cloning PCR products or by cloning annealed pairs of synthetic oligonucleotides. RNA transcripts for binding experiments were prepared by transcription of HindIII cut plasmids using T7 RNA polymerase and purified by gel electrophoresis. These transcripts carry a 5' extension of 15 nucleotides contributed by the vector and an extra A residue at the 3' end from the HindIII site, as described above.
For filter binding assays, each reaction mixture contained 20 pg of uniformly labelled RNA probe (approximately 500 cpm/pg RNA), […] sonicated salmon sperm DNA, […] yeast tRNA, 40 units RNasin (Promega) in […] TK buffer (43 mM Tris-HCl pH8.0, 50 mM KCl). Incubation was at 4° C. for 15 minutes in the presence of 0 to 10 nM purified rev protein. To measure binding, each reaction mixture was applied under gentle vacuum to a 0.45 um Millipore filter which had been pre-wetted with TK buffer. The filters were washed with […] TK buffer, dried, and radioactivity counted by liquid scintillation.
Filter binding assays contained 20 pg uniformly labelled RNA probe (500 dpm per pg RNA), 1 μg salmon sperm DNA, 0.45 μg yeast tRNA and 40 units RNasin (Promega) in 500 μl buffer containing 43 mM Tris-HCl pH 8.0, 50 mM KCl. Mutations in the purine-rich "bubble" sequence (numbered as shown in FIG. 2) were introduced into the R33 stem-loop structure (FIG. 3d) by site-directed mutagenesis.

[2] = tested on: rev protein; assay: Competition filter binding against labelled RRE RNA (FIG. 11); set-up: species or system HIV-1; conditions: 17 nM rev, 0.5 pM labelled RRE RNA; read-out: D1/2, competitor concentration reducing rev binding to labelled RRE RNA by 50%
Procedure: Unlabelled RRE RNA was an effective competitor and reduced rev binding to the labelled RRE RNA by 50% of the initial value with a D1/2 =2 nM. The short R33 transcript was also an effective competitor and reduced rev binding with D1/2 =8 nM. The mutations in the "bubble" either reduce or abolish specific rev binding.
Filter binding reactions contained 17 nM rev, 0.5 pM labelled RRE RNA and between 0-100 nM unlabelled competitor RNA. Empty squares, RRE RNA competitor; filled circles, R33 RNA competitor; filled triangles, R34 RNA competitor; empty triangles, R35 RNA competitor.

[3] = molecular target: T1, HIV-1 Rev (Human immunodeficiency virus 1, UniProt P04618 P04618:1-116); assay: filter; shortest T7 transcript with full affinity; conditions: tags: none stated; heparin-Sepharose and Superose 6 purified; chain copies: oligomer (tetramer likely; about 4 per RBC6, 6-8 per full-length RRE at 50 mM KCl) stated; label: 32P uniform; stem-loop with purine-rich bubble
[4] = molecular target: T1, HIV-1 Rev; assay: filter; normal rev binding; conditions: tags: none stated; heparin-Sepharose and Superose 6 purified; chain copies: oligomer (tetramer likely; about 4 per RBC6, 6-8 per full-length RRE at 50 mM KCl) stated; label: 32P uniform; stem-loop with purine-rich bubble
[5] = molecular target: T1, HIV-1 Rev; assay: filter; 50 mM KCl, 4 C; 35% bound at 10 nM rev; conditions: tags: none stated; heparin-Sepharose and Superose 6 purified; chain copies: oligomer (tetramer likely; about 4 per RBC6, 6-8 per full-length RRE at 50 mM KCl) stated; label: 32P uniform; stem-loop with altered bubble
[6] = molecular target: T1, HIV-1 Rev; assay: competition; D1/2 vs labelled RRE RNA, 17 nM rev; conditions: tags: none stated, heparin-Sepharose and Superose 6 purified, chain copies: oligomer (tetramer likely; about 4 per RBC6, 6-8 per full-length RRE at 50 mM KCl) stated, label: 32P uniform
[7] = molecular target: T1, HIV-1 Rev; assay: filter; same affinity as full-length RRE; conditions: tags: none stated; heparin-Sepharose and Superose 6 purified; chain copies: oligomer (tetramer likely; about 4 per RBC6, 6-8 per full-length RRE at 50 mM KCl) stated; label: 32P uniform; stem-loop with purine-rich bubble
[8] = molecular target: T1, HIV-1 Rev; assay: filter; bubble not formed; conditions: tags: none stated; heparin-Sepharose and Superose 6 purified; chain copies: oligomer (tetramer likely; about 4 per RBC6, 6-8 per full-length RRE at 50 mM KCl) stated; label: 32P uniform
[9] = molecular target: T1, HIV-1 Rev; assay: competition; competes with same affinity as RBC6; conditions: tags: none stated; heparin-Sepharose and Superose 6 purified; chain copies: oligomer (tetramer likely; about 4 per RBC6, 6-8 per full-length RRE at 50 mM KCl) stated; RNA three-way junction stabilising bubble (all strands RNA)
[10] = molecular target: T1, HIV-1 Rev; assay: filter; conditions: tags: none stated, heparin-Sepharose and Superose 6 purified, chain copies: oligomer (tetramer likely; about 4 per RBC6, 6-8 per full-length RRE at 50 mM KCl) stated, label: 32P uniform
[11] = molecular target: T1, HIV-1 Rev; assay: filter; non-specific binding only; conditions: tags: none stated; heparin-Sepharose and Superose 6 purified; chain copies: oligomer (tetramer likely; about 4 per RBC6, 6-8 per full-length RRE at 50 mM KCl) stated; label: 32P uniform; stem-loop with altered bubble
[12] = molecular target: T1, HIV-1 Rev; assay: filter; 50 mM KCl, 4 C; 21% bound at 10 nM rev; conditions: tags: none stated; heparin-Sepharose and Superose 6 purified; chain copies: oligomer (tetramer likely; about 4 per RBC6, 6-8 per full-length RRE at 50 mM KCl) stated; label: 32P uniform
[13] = molecular target: T1, HIV-1 Rev; assay: filter; 50 mM KCl, 4 C; 40% bound at 10 nM rev; conditions: tags: none stated, heparin-Sepharose and Superose 6 purified, chain copies: oligomer (tetramer likely; about 4 per RBC6, 6-8 per full-length RRE at 50 mM KCl) stated, label: 32P uniform
[14] = molecular target: T1, HIV-1 Rev; assay: filter; 50 mM KCl, 4 C; 18% bound at 10 nM rev; conditions: tags: none stated; heparin-Sepharose and Superose 6 purified; chain copies: oligomer (tetramer likely; about 4 per RBC6, 6-8 per full-length RRE at 50 mM KCl) stated; label: 32P uniform
[15] = molecular target: T1, HIV-1 Rev; assay: filter; 50 mM KCl, 4 C; 20% bound at 10 nM rev; conditions: tags: none stated; heparin-Sepharose and Superose 6 purified; chain copies: oligomer (tetramer likely; about 4 per RBC6, 6-8 per full-length RRE at 50 mM KCl) stated; label: 32P uniform
[16] = molecular target: T1, HIV-1 Rev; assay: filter; 50 mM KCl, 4 C; 15% bound at 10 nM rev; conditions: tags: none stated; heparin-Sepharose and Superose 6 purified; chain copies: oligomer (tetramer likely; about 4 per RBC6, 6-8 per full-length RRE at 50 mM KCl) stated; label: 32P uniform
[17] = Table I, filter binding, 20 pg labelled RNA probe, 50 mM KCl, read-out: Kd
[18] = stem-loop with purine-rich bubble on 9-bp stem

R33: stem-loop of residues 33 to 63, A56 deleted, inserted on top of a stem containing 9 base pairs; wild-type bubble (GGGAGACCGGAAUUCUGGGCGCAGUGUCAUUGACGCUGCGGUACAGAAUUCCGGCA; chemistry not given here)
% RNA bound (10 nM rev) ([1]; Table I, 50 mM KCl): 40% | Kd [1, 17]: 3 nM | rev binding, result in words [1]: Normal rev binding | IC50 [2]: 8 nM

R34 (GGGAGACCGGAAUUCUGCGCAGUGUCAUUGACGCUGCGGUACAGAAUUCCGGC; chemistry not given here)
% RNA bound (10 nM rev) ([1]; Table I, 50 mM KCl): 3% | rev binding, result in words [1]: abolished specific rev binding; also recorded: does not bind rev with measurable affinity | IC50 [2]: > 250 nM

R35 (GGGAGACCGGAAUUCUGGCGCAGUGUCAUUGACGCUGCGGUACAGAAUUCCGGCA; chemistry not given here)
% RNA bound (10 nM rev) ([1]; Table I, 50 mM KCl): 35% | Kd [1, 17]: 4 nM | Kd ([1]; saturation filter binding of T7 transcripts, read-out: Kd for rev binding): 4 nM | rev binding, result in words [1]: reduced rev binding slightly | IC50 [2]: 16 nM

GGGAGACCGGAAUUCUGGGCGCAGUGUCAUUGACGCUGACGGUACAGGCA (ssRNA) [R19 (RRE 33-66)]
Kd [3]: 1.73 nM

GGGAGACCGGAAUUCUGGGCGCAGUGUCAAUGACGCUGACGGUACAGGCA (ssRNA) [R29 (apex loop antisense)]
binding result [4]: binds

B1: R35 (dG35) (ssRNA)
RNA: GGGAGACCGGAAUUCUGGCGCAGUGUCAUUGACGCUGCGGUACAGAAUUCCGGCA
Kd [5]: 4 nM | IC50 ([6]; stem-loop with altered bubble): 16 nM

B2: RRE fragment 1-96 (ssRNA)
RNA: GGGAGACCGGAAUUCCCUUGGGUUCUUGGGAGCAGCAGGAAGCACUAUGGGCGCAGUGUCAUUGACGCUGACGGUACAGGCCAGACAAUUAUUGUCUGGUAUAGUGCAACA
binding result [7]: binds

B3: RRE fragment 26-72 (ssRNA)
RNA: GGGAGACCGGAAUUCAGCACUAGGGCGCAGUGUCAUUGACGCUGAGGGUACAGGCCAGACAAUUAUA
binding result [8]: no binding

B4: TWJ-U (structured_DNA)
DNA 1: GCACUAUGGGCGCAGC
DNA 2: GCUGCGGUACAGGCCAGA
DNA 3: UCUGGUAUAGUGC
binding result [9]: binds

GGGAGACCGGAAUUCUGGGCGCUUCGGCGGUACAGA (ssRNA) [R38 (upper stem-loop replaced by CUUCGG)]
Kd ([10]; hairpin with purine-rich bubble): 1.73 nM

GGGAGACCGGAAUUCUGGGCGCAGUGUCAUUGACGCUGCGGUACAGGCA (ssRNA) [R22 (A56 deleted)]
Kd ([10]; stem-loop with purine-rich bubble): 1.73 nM

GGGAGACCGGAAUUCUGGGCGCAGCGUCAUUGACACUGCGGUACAGGCA (ssRNA) [R30 (upper stem antisense)]
binding result [4]: binds

B5: R34 (dG35-G36) (ssRNA)
RNA: GGGAGACCGGAAUUCUGCGCAGUGUCAUUGACGCUGCGGUACAGAAUUCCGGC
IC50 ([6]; stem-loop with altered bubble): > 250 nM | binding signal [11]: 3 % RNA bound at 10 nM rev

B6: RRE fragment 26-92 (ssRNA)
RNA: GGGAGACCGGAAUUCAGCACUAUGGGCGCAGUGUCAUUGACGCUGACGGUACAGGCCAGACAAUUAUUGUCUGGUAUAGUGCA
binding result [7]: binds

B7: R55 (ssRNA)
RNA: GGGAGACCGGAAUUCUAGGCGCAGUGUCAUUGACGCUGCGGUAUAGAAUUCCGGCA
modifications: [-]
Kd [12]: 4 nM

B8: R57 (ssRNA)
RNA: GGGAGACCGGAAUUCUGGGCACAGUGUCAUUGACGCUGUGGUACAGAAUUCCGGCA
modifications: [-]
Kd [13]: 3 nM

B9: R52 (ssRNA)
RNA: GGGAGACCGGAAUUCUGGGCGCAGUGUCAUUGACGCUGCGGCACAGAAUUCCGGCA
modifications: [-]
Kd [14]: 5 nM

B10: R50 (ssRNA)
RNA: GGGAGACCGGAAUUCUGGACGCAGUGUCAUUGACGCUGCGGUACAGAAUUCCGGCA
modifications: [-]
Kd [15]: 5 nM

B11: R39 (ssRNA)
RNA: GGGAGACCGGAAUUCAGGGCGCAGUGUCAUUGACGCUGCGGUACUGAAUUCCGGCA
modifications: [-]
Kd [16]: 8 nM

B12: R33 (ssRNA)
RNA: GGGAGACCGGAAUUCUGGGCGCAGUGUCAUUGACGCUGCGGUACAGAAUUCCGGCA
Kd [13, 18]: 3 nM | IC50 [6, 18]: 8 nM

B13: R42 (ssRNA)
RNA: GGGAGACCGGAAUUCUGGGCCCAGUGUCAUUGACGCUGGGGUACAGAAUUCCGGCA
modifications: [none]
Kd [14]: 8 nM
